From publication PMC1931440 come the findings set out here.

This experiment concerns the target murine type IV collagen (murine) (UniProt P02463). Put plainly: adherence of recombinant bacteria to collagen-coated wells; intact E. coli EPI300 expressing Hag (~10^7 CFU in PBS with 0.15% gelatin) added to BioCoat murine type IV collagen wells with tissue culture medium; centrifuged 165 x g 5 min; 1 hr at 37°C, 7.5% CO2; washed five times; fixed, crystal violet; bacteria counted per microscopic field, normalized by CFU; negative control E. coli with pCC1.3.
UniProt P02463, sequence (P02463 173-1669, chain 1 of 2): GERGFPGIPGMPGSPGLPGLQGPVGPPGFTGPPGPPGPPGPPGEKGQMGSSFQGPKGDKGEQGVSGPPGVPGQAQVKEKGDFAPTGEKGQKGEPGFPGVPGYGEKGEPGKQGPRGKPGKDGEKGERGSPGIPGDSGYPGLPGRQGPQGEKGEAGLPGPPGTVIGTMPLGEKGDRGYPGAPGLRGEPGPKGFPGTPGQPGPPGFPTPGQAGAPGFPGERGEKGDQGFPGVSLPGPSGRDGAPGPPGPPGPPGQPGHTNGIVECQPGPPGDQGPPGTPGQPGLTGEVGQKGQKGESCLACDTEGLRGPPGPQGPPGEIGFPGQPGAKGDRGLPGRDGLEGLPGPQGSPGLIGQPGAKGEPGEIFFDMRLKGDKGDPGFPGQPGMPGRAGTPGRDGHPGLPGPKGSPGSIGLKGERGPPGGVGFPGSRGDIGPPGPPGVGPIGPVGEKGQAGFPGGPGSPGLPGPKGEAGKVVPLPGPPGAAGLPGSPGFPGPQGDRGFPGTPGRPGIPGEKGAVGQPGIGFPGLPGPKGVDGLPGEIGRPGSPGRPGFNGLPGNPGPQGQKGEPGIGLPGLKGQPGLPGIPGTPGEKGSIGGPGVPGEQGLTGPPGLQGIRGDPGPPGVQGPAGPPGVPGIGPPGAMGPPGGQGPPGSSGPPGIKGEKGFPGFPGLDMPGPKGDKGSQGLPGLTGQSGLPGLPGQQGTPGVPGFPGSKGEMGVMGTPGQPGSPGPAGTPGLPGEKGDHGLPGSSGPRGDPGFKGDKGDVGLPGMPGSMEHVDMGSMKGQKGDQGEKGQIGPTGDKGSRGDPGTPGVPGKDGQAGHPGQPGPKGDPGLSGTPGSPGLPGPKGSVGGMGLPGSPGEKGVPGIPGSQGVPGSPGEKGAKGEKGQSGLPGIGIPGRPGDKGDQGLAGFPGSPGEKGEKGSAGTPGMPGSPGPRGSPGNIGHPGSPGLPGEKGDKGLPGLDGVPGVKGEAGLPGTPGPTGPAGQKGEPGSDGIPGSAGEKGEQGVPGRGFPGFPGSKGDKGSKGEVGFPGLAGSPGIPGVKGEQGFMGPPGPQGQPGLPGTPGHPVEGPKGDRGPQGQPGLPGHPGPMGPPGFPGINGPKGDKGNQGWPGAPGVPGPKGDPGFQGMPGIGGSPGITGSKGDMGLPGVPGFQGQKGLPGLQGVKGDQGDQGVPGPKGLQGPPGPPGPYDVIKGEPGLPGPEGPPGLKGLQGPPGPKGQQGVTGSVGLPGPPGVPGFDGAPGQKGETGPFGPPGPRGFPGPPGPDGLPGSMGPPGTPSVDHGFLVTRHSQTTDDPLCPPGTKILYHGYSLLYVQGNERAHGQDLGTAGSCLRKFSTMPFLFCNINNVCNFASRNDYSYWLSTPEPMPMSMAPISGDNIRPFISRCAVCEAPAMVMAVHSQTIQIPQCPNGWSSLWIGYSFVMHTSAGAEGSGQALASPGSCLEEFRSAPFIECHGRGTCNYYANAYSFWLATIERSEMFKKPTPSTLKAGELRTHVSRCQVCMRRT
UniProt P02463, sequence (P08122 184-1707, chain 2 of 2, further chain): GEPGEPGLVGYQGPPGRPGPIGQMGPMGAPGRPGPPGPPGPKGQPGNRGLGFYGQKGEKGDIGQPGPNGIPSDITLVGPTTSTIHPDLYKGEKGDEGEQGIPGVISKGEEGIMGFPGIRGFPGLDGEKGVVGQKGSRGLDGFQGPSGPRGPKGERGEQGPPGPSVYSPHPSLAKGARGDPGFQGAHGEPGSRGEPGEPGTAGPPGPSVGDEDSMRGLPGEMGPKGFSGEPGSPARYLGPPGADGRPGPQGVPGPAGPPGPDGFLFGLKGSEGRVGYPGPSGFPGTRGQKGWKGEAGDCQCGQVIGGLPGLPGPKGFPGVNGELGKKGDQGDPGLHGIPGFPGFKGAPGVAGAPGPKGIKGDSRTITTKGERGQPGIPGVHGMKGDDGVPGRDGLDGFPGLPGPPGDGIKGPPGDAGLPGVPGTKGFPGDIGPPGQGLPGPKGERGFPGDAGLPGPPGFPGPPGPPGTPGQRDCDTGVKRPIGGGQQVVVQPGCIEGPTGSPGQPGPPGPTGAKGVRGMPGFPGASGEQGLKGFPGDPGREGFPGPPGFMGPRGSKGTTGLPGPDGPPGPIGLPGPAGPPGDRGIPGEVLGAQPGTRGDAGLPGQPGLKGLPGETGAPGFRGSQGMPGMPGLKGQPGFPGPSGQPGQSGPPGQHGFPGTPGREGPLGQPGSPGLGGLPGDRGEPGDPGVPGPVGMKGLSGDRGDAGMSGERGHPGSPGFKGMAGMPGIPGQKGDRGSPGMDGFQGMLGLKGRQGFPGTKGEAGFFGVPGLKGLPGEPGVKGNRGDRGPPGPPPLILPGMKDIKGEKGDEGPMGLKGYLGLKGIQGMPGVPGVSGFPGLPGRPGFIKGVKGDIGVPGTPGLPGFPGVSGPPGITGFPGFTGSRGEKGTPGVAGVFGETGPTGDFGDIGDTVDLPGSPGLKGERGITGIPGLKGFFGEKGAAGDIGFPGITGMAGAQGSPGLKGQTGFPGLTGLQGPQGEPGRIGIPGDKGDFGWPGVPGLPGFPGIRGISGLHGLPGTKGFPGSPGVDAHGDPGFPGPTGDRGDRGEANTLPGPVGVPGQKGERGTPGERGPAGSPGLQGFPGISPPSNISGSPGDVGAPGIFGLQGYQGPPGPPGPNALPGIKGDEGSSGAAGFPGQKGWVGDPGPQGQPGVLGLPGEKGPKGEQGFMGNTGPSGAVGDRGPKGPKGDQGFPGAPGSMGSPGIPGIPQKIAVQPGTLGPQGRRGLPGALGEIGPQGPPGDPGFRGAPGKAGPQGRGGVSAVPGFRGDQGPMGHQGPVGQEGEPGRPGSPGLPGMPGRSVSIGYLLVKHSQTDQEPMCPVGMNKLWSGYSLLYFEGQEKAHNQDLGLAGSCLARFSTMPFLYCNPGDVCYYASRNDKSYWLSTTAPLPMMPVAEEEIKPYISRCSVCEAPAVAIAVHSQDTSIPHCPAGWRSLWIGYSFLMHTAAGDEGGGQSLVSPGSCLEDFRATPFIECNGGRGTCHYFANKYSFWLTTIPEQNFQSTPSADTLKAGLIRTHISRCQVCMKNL
Take “Moraxella catarrhalis strain O12E Hag protein (natural protein)”: the fold adherence to collagen over the negative control (E. coli with pCC1.3) was determined as 35 fold.
For “Moraxella catarrhalis strain O35E Hag protein (wild type) (natural protein)”, the fold adherence to collagen over the negative control (E. coli with pCC1.3) stood at 80 fold.
Turning to “Moraxella catarrhalis strain V1171 Hag protein (natural protein)”, the fold adherence to collagen over the negative control (E. coli with pCC1.3) was found to be 35 fold.
